Data on three variants can be found in article PMC5309860 (2017).

B1: His-β-arrestin-1-WT [not stated] / GST-PLCγ-SH3 [human] (parent complex)
chain 1: MGDKGTRVFKKASPNGKLTVYLGKRDFVDHIDLVDPVDGVVLVDPEYLKERRVYVTLTCAFRYGREDLDVLGLTFRKDLFVANVQSFPPAPEDKKPLTRLQERLIKKLGEHAYPFTFEIPPNLPCSVTLQPGPEDTGKACGVDYEVKAFCAENLEEKIHKRNSVRLVIRKVQYAPERPGPQPTAETTRQFLMSDKPLHLEASLDKEIYYHGEPISVNVHVTNNTNKTVKKIKISVRQYADICLFNTAQYKCPVAMEEADDTVAPSSTFCKVYTLTPFLANNREKRGLALDGKLKHEDTNLASSTLLREGANREILGIIVSYKVKVKLVVSRGGLLGDLASSDVAVELPFTLMHPKPKEEPPHREVPENETPVDTNLIELDTNDDDIVFEDFARQRLKGMKDDKEEEEDGTGSPQLNNR
chain 2: TFKCAVKALFDYKAQREDELTFIKSAIIQNVEKQEGGWWRGDYGGKKQLWFPSNYVEEMVN

The first test covers variants of B1. Briefly: GST pull down assay (quantified western blot); 5 μM GST-PLCγ-SH3, 5 μM β-arrestin-1, with GRK6pp; parent: 2.5; read off a plot.
Consider chain 1 P180A, for which the screen value is approximately 2.6 fold.
Consider chain 1 P88A, chain 1 P89A, chain 1 P91A, for which the screen value was approximately 1.1 fold.
For chain 1 P121A, the screen value was approximately 2.7 fold.

In a further test the parent is B1. As to the kind of experiment: GST pull down assay (quantified western blot); 5 μM GST-PLCγ-SH3, 5 μM β-arrestin-1, without GRK6pp; parent: 1; read off a plot.
As to chain 1 P180A, the screen value is approximately 1.2 fold.
In the case of chain 1 P88A, chain 1 P89A, chain 1 P91A, the screen value is approximately 1.1 fold.
On to chain 1 P121A, for which the screen value is approximately 1.1 fold.
